The target in this experiment is CD30 (analyte in SPR) (UniProt P28908). Nature of the experiment: SPR, 25° C. pH 7.4, scFv captured on chip, CD30 as analyte, average value. On the technique in general: In SPR one partner is held on a chip, and binding of the other changes the refractive index at the surface.
Chain of CD30 (analyte in SPR) (P28908 19-379 limits assumed): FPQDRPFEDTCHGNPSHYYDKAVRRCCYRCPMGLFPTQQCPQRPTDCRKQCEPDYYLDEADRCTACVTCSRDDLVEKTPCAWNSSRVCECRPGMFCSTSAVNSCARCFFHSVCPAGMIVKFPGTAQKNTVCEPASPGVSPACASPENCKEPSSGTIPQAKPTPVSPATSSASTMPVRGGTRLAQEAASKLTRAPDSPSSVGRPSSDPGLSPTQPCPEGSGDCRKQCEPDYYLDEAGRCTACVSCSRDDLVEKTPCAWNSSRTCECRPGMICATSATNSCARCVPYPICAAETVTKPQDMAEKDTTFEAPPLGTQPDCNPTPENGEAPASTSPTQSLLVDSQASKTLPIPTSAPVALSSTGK

B1: anti-CD30 clone 52-2 scFv (scFv, part only; not given: Linker, domain order, tag, V domains shown, not shown: another chain or arm of the molecule; small tags and cut ends)
VH: EVQLVESGGGLVQPGGSLRLSCAASGFTFSSYYMHWVRQAPGKGLEWVSAISWSGGSTYYADSVKGRFTISRDNSKNTLYLQMNSLRAEDTAVYYCARDRFMPFIPNTLGFDVWGQGTLVTVSS
VL: DIQMTQSPSSLSASVGDRVTITCQASQDISNYLNWYQQKPGKAPKLLIYVASNLETGVPSRFSGSGSGTDFTFTISSLQPEDIATYYCQQDADVPLTFGQGTKVEIK
The Kd is the equilibrium constant for the complex coming apart. A high value points to lower affinity. In the case of B1, the Kd was 0.8 nM. That is a sub-nanomolar value.

The values above are taken from US20220275098A1.
